Assay results from publication PMC3941056 (The Journal of Cell Biology, 2014).

Biological target: the molecule itself
Assay: fluorescence correlation spectroscopy

B1: HsSAS-6–[F131E] with a C-terminal GFP (natural protein, human, UniProt Q6UVJ0 1-657, looked up)
chain: MSQVLFHQLVPLQVKCKDCEERRVSIRMSIELQSVSNPVHRKDLVIRLTDDTDPFFLYNLVISEEDFQSLKFQQGLLVDFLAFPQKFIDLLQQCTQEHAKEIPRFLLQLVSPAAILDNSPAFLNVVETNPEKHLTHLSLKLLPGNDVEIKKFLAGCLKCSKEEKLSLMQSLDDATKQLDFTRKTLAEKKQELDKLRNEWASHTAALTNKHSQELTNEKEKALQAQVQYQQQHEQQKKDLEILHQQNIHQLQNRLSELEAANKDLTERKYKGDSTIRELKAKLSGVEEELQRTKQEVLSLRRENSTLDVECHEKEKHVNQLQTKVAVLEQEIKDKDQLVLRTKEAFDTIQEQKVVLEENGEKNQVQLGKLEATIKSLSAELLKANEIIKKLQGDLKTLMGKLKLKNTVTIQQEKLLAEKEEKLQKEQKELQDVGQSLRIKEQEVCKLQEQLEATVKKLEESKQLLKNNEKLITWLNKELNENQLVRKQDVLGPSTTPPAHSSSNTIRSGISPNLNVVDGRLTYPTCGIGYPVSSAFAFQNTFPHSISAKNTSHPGSGTKVQFNLQFTKPNASLGDVQSGATISMPCSTDKENGENVGLESKYLKKREDSIPLRGLSQNLFSNSDHQRDGTLGALHTSSKPTALPSASSAYFPGQLPNS
brightness relative to monomeric GFP: ~1.6 fold | stoichiometry N: 2
